From PMC8948829, “The Escherichia coli Amino Acid Uptake Protein CycA: Regulation of Its Synthesis and Practical Application in L-Isoleucine Production” (Microorganisms, 2022)

Target: T1, Crp (CRP, cAMP receptor protein) (Escherichia coli (purified from strain SA500/pHA5)) (UniProt P0ACJ8)
T1 sequence: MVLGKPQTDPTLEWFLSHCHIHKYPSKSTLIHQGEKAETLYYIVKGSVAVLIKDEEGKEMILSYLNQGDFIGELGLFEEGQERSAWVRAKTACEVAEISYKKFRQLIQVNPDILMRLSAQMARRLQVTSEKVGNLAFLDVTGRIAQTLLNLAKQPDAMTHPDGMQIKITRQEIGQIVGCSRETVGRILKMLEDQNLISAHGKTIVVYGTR
Assay: EMSA
Settings: 10 mM Tris-HCl pH 7.5, 1 mM EDTA, 100 mM KCl, 1 mM DTT, BSA (printed 10 g/mL), 5% glycerol, 20 uM cAMP, room temperature 30 min; 6% native PAGE, 1x TAE, 4 C

| Sequence | binding |
| --- | --- |
| CGTTCAGCACCCTGGTGTTTGAAGTCGAACTGCTGGAAATCCTCTAAGCAGCGCATTCTGTTCCCCTCGAACGAGAGGGGAGCAGGCATTCAGCAATAAACCCTTCAGTTTGCCAAACGGCGCTATTTTGTGTTGCAAAGACCCCGTA (double strand) [PcycA fragment 3 (148 bp, no predicted Crp site)] | no binding |
| TGTTTAAAGTGAGTGTCATATCACGGTGATAACGCGAAACAGCTCACAAAAATACACGCTTACGGGGTCTTTGCAACACAAAATAGCGCCGTTTGGCAAACTGAAGGGTTTATTGCTGAATGCCTGCTCCCCTCTCGTTCGAGGGGAACAGAATGCGCTGCTTAGAGGATTTCCAGCAGTTCGACTTCAAACACCAGGGTGCTGAACG (double strand) [PcycA fragment 1 (208 bp)] | binds |
